This is an account of results in paper PMC12289001, “Functional characterization of DPP4 and FcRn as receptor and coreceptor for classical human astroviruses in Caco-2 cells” (PLOS Pathogens, 2025).

In this assay the target is T1, recombinant FcRn (FCGRT ectodomain with β-2-Microglobulin), expressed in CHO-S cells (human, UniProt P55899 24-297; P61769 21-119).
T1 construct: signal peptide in the construct; ectodomain of human FCGRT (FcRn heavy chain), Met1-Ser297, followed by a C-terminal thrombin cleavage site before the tags; β-2-Microglobulin, Met1-Met119; also called neonatal Fc receptor; source: CHO-S cells, electroporated with both plasmids, purified from the media (StrepTrap XT)
Briefly: BLI; HIS1K biosensors loaded with HAstV-8 spike (6 μg/ml); FcRn in solution, 1,000 to 62.5 nM (mutant spike: 2,000 nM only); 0.1M sodium phosphate, 150 mM NaCl, 0.05% Tween-20, pH 7.0; 25 °C; 1:1 binding model; triplicate. The settings on record: both partners purified. Background: Biolayer interferometry detects binding as a change in optical thickness at a sensor tip.

T1 sequence (P55899 24-297, chain 1 of 2): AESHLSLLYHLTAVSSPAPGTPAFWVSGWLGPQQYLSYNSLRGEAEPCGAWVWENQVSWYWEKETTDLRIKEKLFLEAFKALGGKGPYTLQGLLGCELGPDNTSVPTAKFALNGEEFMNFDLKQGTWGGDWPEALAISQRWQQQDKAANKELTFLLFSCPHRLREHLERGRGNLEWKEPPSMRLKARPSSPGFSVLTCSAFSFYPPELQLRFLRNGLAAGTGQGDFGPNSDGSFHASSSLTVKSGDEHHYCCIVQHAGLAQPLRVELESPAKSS
T1 sequence (P61769 21-119, chain 2 of 2): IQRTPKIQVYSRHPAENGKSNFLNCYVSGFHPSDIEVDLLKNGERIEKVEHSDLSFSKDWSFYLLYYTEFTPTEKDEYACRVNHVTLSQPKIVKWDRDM

B1: recombinant WT HAstV-8 capsid spike (domain or fragment)
chain: GEQFRVLLTVGPPMAPNTANSQNWVNKTIVPPENQYTVKIGIDLEHYTTMQGFTPVESVSWYTADFQPSDEPSPIPGLYARVNNTKKADVYGVQQFKSSHTNNRHQITSVFLVRVTTSFQVINYTSYFIRGAESGSNVSNLKIRDQTYHTPLQFTQGKWYLLTSTVMHDGPTSSGWVWMNQELTNNIAYRVDPGMMYLITPPPAASQLYFELHTVLPQA
modifications: Wild-type spike. Limits are not printed: about 429-647 is taken by convention from related HAstV spike constructs and is close to the VP25 feature 424-648. The C-terminal thrombin site and His10 tag …
In general, Kd refers to the free concentration of one partner at which half of the binding sites on the other are occupied at equilibrium, for simple one-to-one binding. For the molecule B1, the dissociation constant Kd is approximately 280 nM.
